Laboratory results: patent publication US20260176621A1, “Metabolically Stabilized Carbohydrate Targeting Ligands For Oligonucleotide Conjugates” (Arrowhead Pharmaceuticals, Inc., priority 2023, published 2026)

Columns and labels:
Type in all cases: in vivo, Cynomolgus monkey
[1] = test system: PCSK9; test: Liver PCSK9 mRNA expression by qPCR of liver biopsies (Example 5); settings: for Rel. Exp. PCSK9 (liver mRNA, qPCR, normalized to Day −6): 6.0 mg/kg SQ on Day 1
Method: (§1) On Day 1, three (n=3) male Cynomolgus monkey test animals for each test group were dosed with APOC3-PCSK9 RNAi agents formulated in saline (at 6.0 mg/kg), via subcutaneous (SQ) injection with syringe and needle in the mid-scapular region, at […] dose volume.
(§2) The liver biopsies and serum collected from the test animals were used for analysis for APOC3 and PCSK9 expression and additional biological parameters. Liver biopsies were collected on Day −6, Day 15, Day 36, Day 50, and Day 64 (post-mortem).
(§3) Liver biopsies were collected as a sedated procedure. Animals were fasted overnight (at least 12 hours but less than 18 hours) prior to each liver biopsy collection. For each animal, collected liver biopsy samples were of approximately 100 mg each (80 to 120 mg).
(§4) The collected liver biopsies were analyzed for APOC3 and PCSK9 expression and additional biological parameters. Liver APOC3 and PCSK9 mRNA expression levels were quantified via qPCR, using cARL1 as endogenous control gene, normalized to Day-6 (pre-dose).

[2] = test system: APOC3; test: Serum APOC3 by Roche Cobas assay (Example 5); settings: for APOC3 (serum): 6.0 mg/kg SQ on Day 1; for inhibition of serum APOC3 relative to Day −6: single 6.0 mg/kg SQ on Day 1
Method: as §1
(§5) Serum blood (approximately 5.0 mL) was collected on Day −6, Day 8, Day 15, Day 22, Day 29, Day 36, Day 43, Day 50, […], prior to liver biopsy sample collections or dose administration (when applicable), and from any animals found in moribund condition or sacrificed at an unscheduled interval. The collection site was the femoral vein, with a saphenous vein as an alternative collection site.
Serum APOC3 was quantified via Roche Cobas® assay for APOC3 in accordance with manufacturer's instructions.

[3] = test system: PCSK9; test: Serum PCSK9 by ELISA (Example 5); settings: for Rel. Exp. PCSK9 (serum, ELISA, normalized to pre-dose): 6.0 mg/kg SQ on Day 1; for inhibition of serum PCSK9: single 6.0 mg/kg SQ on Day 1
Method: as §1, §5
Serum PCSK9 was quantified via ELISA (R&D Systems, Cat. #DPC900) in accordance with manufacturer's instructions. The relative PCSK9 levels were normalized to pre-dose Day −6.

[4] = test system: APOC3; test: Liver APOC3 mRNA expression by qPCR of liver biopsies (Example 5); settings: for Rel. Exp. APOC3 (liver mRNA, qPCR, normalized to Day −6): 6.0 mg/kg SQ on Day 1; for inhibition of liver APOC3 transcripts: single 6.0 mg/kg SQ on Day 1
Method: as §1, §2, §3, §4

B1: AC005898: APOC3-PCSK9 dimer RNAi agent conjugate with (NAG52)s ligand, SEQ ID NO 17-19 (nucleic acid)
chain 1: ACAAAAGCAAAACAGGUCC
chain 2: UCACUGAGAAUACUGUCCC
chain 3: GGACCUGUUUUGCUUUUGUGGGACAGUAUUCUCAGUNA
modifications: (NAG52)s ligand conjugate; modified_base 1 OTHER; 5'-cyclopropyl phosphonate-2'-O-methyladenosine; modified_base 1^2 OTHER; phosphorothioate linkage; modified_base 2 OTHER; 2'-fluorocytidine; modified_base 2^3 OTHER; modified_base 3 OTHER; 2'-O-methyladenosine; modified_base 3^4 OTHER; modified_base 4 OTHER; 2'-fluoroadenosine; modified_base 5 OTHER; 5'-cyclopropyl phosphonate-2'-O-methyluridine; phosphor
Rel. Exp. PCSK9 (liver mRNA, qPCR, normalized to Day −6) ([1]; Day 15): 0.614 | Rel. Exp. PCSK9 (liver mRNA, qPCR, normalized to Day −6) ([1]; Day 36): 0.520 | Rel. Exp. PCSK9 (liver mRNA, qPCR, normalized to Day −6) ([1]; Day 50): 0.528 | Rel. Exp. PCSK9 (liver mRNA, qPCR, normalized to Day −6) ([1]; Day 64): 0.457 | Rel. Exp. PCSK9 (liver mRNA, qPCR, normalized to Day −6) ([1]; Day −6 (pre-dose baseline)): 1.000 | APOC3 (serum) ([2]; Day 1): 6.10 mg/dL | APOC3 (serum) ([2]; Day 8): 4.61 mg/dL | APOC3 (serum) ([2]; Day 15): 3.59 mg/dL | inhibition of serum APOC3 relative to Day −6 ([2]; Day 22 (nadir)): approximately 40% | APOC3 (serum) ([2]; Day 22): 3.50 mg/dL | APOC3 (serum) ([2]; Day 29): 4.16 mg/dL | APOC3 (serum) ([2]; Day 36): 3.59 mg/dL | APOC3 (serum) ([2]; Day 43): 4.07 mg/dL | APOC3 (serum) ([2]; Day 50): 3.96 mg/dL | APOC3 (serum) ([2]; Day 57): 4.94 mg/dL | APOC3 (serum) ([2]; Day 64): 4.47 mg/dL | inhibition of serum APOC3 relative to Day −6 ([2]; Day 64): approximately 23% | APOC3 (serum) ([2]; Day −6 (pre-dose baseline)): 5.84 mg/dL | Rel. Exp. PCSK9 (serum, ELISA, normalized to pre-dose) ([3]; Day 1): 1.004 | Rel. Exp. PCSK9 (serum, ELISA, normalized to pre-dose) ([3]; Day 8): 0.724 | Rel. Exp. PCSK9 (serum, ELISA, normalized to pre-dose) ([3]; Day 15): 0.561 | Rel. Exp. PCSK9 (serum, ELISA, normalized to pre-dose) ([3]; Day 22): 0.560 | Rel. Exp. PCSK9 (serum, ELISA, normalized to pre-dose) ([3]; Day 29): 0.617 | Rel. Exp. PCSK9 (serum, ELISA, normalized to pre-dose) ([3]; Day 36): 0.426 | Rel. Exp. PCSK9 (serum, ELISA, normalized to pre-dose) ([3]; Day 43): 0.790 | Rel. Exp. PCSK9 (serum, ELISA, normalized to pre-dose) ([3]; Day 50): 0.728 | Rel. Exp. PCSK9 (serum, ELISA, normalized to pre-dose) ([3]; Day 57): 0.762 | Rel. Exp. PCSK9 (serum, ELISA, normalized to pre-dose) ([3]; Day 64): 0.928 | Rel. Exp. PCSK9 (serum, ELISA, normalized to pre-dose) ([3]; Day −6 (pre-dose)): 1.140 | Rel. Exp. APOC3 (liver mRNA, qPCR, normalized to Day −6) ([4]; Day 15): 0.545 | Rel. Exp. APOC3 (liver mRNA, qPCR, normalized to Day −6) ([4]; Day 36): 0.929 | Rel. Exp. APOC3 (liver mRNA, qPCR, normalized to Day −6) ([4]; Day 50): 0.491 | Rel. Exp. APOC3 (liver mRNA, qPCR, normalized to Day −6) ([4]; Day 64): 0.535 | Rel. Exp. APOC3 (liver mRNA, qPCR, normalized to Day −6) ([4]; Day −6 (pre-dose baseline)): 1.000

B2: AC003791: APOC3-PCSK9 dimer RNAi agent conjugate with (NAG52)s ligand, SEQ ID NO 14-16 (nucleic acid)
chain 1: AAGUUACAAAAGCAAAACG
chain 2: UCACUGAGAAUACUGUCCC
chain 3: CGUUUUGCUUUUGUAACUUGGGACAGUAUUCUCAGUNA
modifications: (NAG52)s ligand conjugate; modified_base 1 OTHER; 5'-cyclopropyl phosphonate-2'-O-methyladenosine; modified_base 1^2 OTHER; phosphorothioate linkage; modified_base 2 OTHER; 2'-fluoroadenosine; modified_base 2^3 OTHER; modified_base 3 gm; modified_base 4 um; modified_base 5 um; modified_base 6 OTHER; 2'-O-methyladenosine; modified_base 7 cm; modified_base 8 OTHER; modified_base; 5'-cyclopropyl phosphonate-2'-O-methyluridine; 2'-fluorocytidine; phosphor
Rel. Exp. PCSK9 (liver mRNA, qPCR, normalized to Day −6) ([1]; Day 15): 0.692 | Rel. Exp. PCSK9 (liver mRNA, qPCR, normalized to Day −6) ([1]; Day 36): 0.908 | Rel. Exp. PCSK9 (liver mRNA, qPCR, normalized to Day −6) ([1]; Day 50): 1.271 | Rel. Exp. PCSK9 (liver mRNA, qPCR, normalized to Day −6) ([1]; Day 64): 0.351 | inhibition of liver PCSK9 transcripts ([1]; Day 64, single 6.0 mg/kg SQ on Day 1): approximately 64% | Rel. Exp. PCSK9 (liver mRNA, qPCR, normalized to Day −6) ([1]; Day −6 (pre-dose baseline)): 1.000 | APOC3 (serum) ([2]; Day 1): 6.48 mg/dL | APOC3 (serum) ([2]; Day 8): 4.57 mg/dL | APOC3 (serum) ([2]; Day 15): 4.03 mg/dL | APOC3 (serum) ([2]; Day 22): 2.92 mg/dL | APOC3 (serum) ([2]; Day 29): 3.69 mg/dL | inhibition of serum APOC3 relative to Day −6 ([2]; Day 36 (nadir)): approximately 51% | APOC3 (serum) ([2]; Day 36): 2.96 mg/dL | APOC3 (serum) ([2]; Day 43): 3.18 mg/dL | APOC3 (serum) ([2]; Day 50): 3.32 mg/dL | APOC3 (serum) ([2]; Day 57): 4.56 mg/dL | APOC3 (serum) ([2]; Day 64): 4.65 mg/dL | inhibition of serum APOC3 relative to Day −6 ([2]; Day 64): approximately 24% | APOC3 (serum) ([2]; Day −6 (pre-dose baseline)): 6.15 mg/dL | Rel. Exp. PCSK9 (serum, ELISA, normalized to pre-dose) ([3]; Day 1): 1.161 | Rel. Exp. PCSK9 (serum, ELISA, normalized to pre-dose) ([3]; Day 8): 0.682 | Rel. Exp. PCSK9 (serum, ELISA, normalized to pre-dose) ([3]; Day 15): 0.415 | Rel. Exp. PCSK9 (serum, ELISA, normalized to pre-dose) ([3]; Day 22): 0.339 | Rel. Exp. PCSK9 (serum, ELISA, normalized to pre-dose) ([3]; Day 29): 0.353 | inhibition of serum PCSK9 ([3]; Day 36 (nadir)): approximately 67% | Rel. Exp. PCSK9 (serum, ELISA, normalized to pre-dose) ([3]; Day 36): 0.323 | Rel. Exp. PCSK9 (serum, ELISA, normalized to pre-dose) ([3]; Day 43): 0.375 | Rel. Exp. PCSK9 (serum, ELISA, normalized to pre-dose) ([3]; Day 50): 0.759 | Rel. Exp. PCSK9 (serum, ELISA, normalized to pre-dose) ([3]; Day 57): 0.431 | Rel. Exp. PCSK9 (serum, ELISA, normalized to pre-dose) ([3]; Day 64): 0.538 | inhibition of serum PCSK9 ([3]; Day 64): approximately 46% | Rel. Exp. PCSK9 (serum, ELISA, normalized to pre-dose) ([3]; Day −6 (pre-dose)): 0.925 | Rel. Exp. APOC3 (liver mRNA, qPCR, normalized to Day −6) ([4]; Day 15): 0.408 | Rel. Exp. APOC3 (liver mRNA, qPCR, normalized to Day −6) ([4]; Day 36): 0.611 | Rel. Exp. APOC3 (liver mRNA, qPCR, normalized to Day −6) ([4]; Day 50): 0.336 | inhibition of liver APOC3 transcripts ([4]; Day 50): approximately 66% | Rel. Exp. APOC3 (liver mRNA, qPCR, normalized to Day −6) ([4]; Day 64): 0.500 | inhibition of liver APOC3 transcripts ([4]; Day 64): approximately 50% | Rel. Exp. APOC3 (liver mRNA, qPCR, normalized to Day −6) ([4]; Day −6 (pre-dose baseline)): 1.000
